Measured values as given in article PMC5669925, “Tumor-expressed immune checkpoint B7x promotes cancer progression and antigen-specific CD8 T cell exhaustion and suppressive innate immune cells” (Oncotarget, 2017).

T1: Recombinant human NRP1 (R&D) (human, UniProt O14786 22-856)
T1 construct: Neuropilin-1 (NRP1), human; Soluble analyte in BLI; no catalogue number or tag is printed; also called Rh-NRP1; source: bought: R&D systems
T1 sequence (looked up): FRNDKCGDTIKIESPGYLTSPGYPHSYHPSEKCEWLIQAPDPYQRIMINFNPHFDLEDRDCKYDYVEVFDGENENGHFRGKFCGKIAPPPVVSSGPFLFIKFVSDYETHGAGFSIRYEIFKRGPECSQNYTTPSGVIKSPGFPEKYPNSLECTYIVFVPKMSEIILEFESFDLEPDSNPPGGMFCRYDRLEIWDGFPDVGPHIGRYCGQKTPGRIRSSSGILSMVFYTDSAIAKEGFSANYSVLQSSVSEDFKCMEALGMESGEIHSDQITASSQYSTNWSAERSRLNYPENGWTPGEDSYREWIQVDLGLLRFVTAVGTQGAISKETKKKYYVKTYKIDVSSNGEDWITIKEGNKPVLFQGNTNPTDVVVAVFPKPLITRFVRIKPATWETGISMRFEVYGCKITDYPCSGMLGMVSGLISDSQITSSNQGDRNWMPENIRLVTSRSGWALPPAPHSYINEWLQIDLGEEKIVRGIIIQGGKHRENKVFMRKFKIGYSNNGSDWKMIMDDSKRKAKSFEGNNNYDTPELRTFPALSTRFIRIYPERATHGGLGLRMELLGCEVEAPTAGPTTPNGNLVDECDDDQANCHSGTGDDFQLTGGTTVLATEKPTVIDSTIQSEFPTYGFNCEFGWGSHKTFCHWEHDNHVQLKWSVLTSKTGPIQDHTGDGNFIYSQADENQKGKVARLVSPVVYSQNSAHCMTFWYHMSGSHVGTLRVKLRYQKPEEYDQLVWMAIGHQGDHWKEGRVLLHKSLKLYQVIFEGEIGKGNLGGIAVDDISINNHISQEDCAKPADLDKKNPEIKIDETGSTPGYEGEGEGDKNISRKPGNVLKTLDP

B1: Human Sema3a-hIgG1 (R&D) (Fc fusion, UniProt Q14563 21-771, looked up)
chain: NYQNGKNNVPRLKLSYKEMLESNNVITFNGLANSSSYHTFLLDEERSRLYVGAKDHIFSFDLVNIKDFQKIVWPVSYTRRDECKWAGKDILKECANFIKVLKAYNQTHLYACGTGAFHPICTYIEIGHHPEDNIFKLENSHFENGRGKSPYDPKLLTASLLIDGELYSGTAADFMGRDFAIFRTLGHHHPIRTEQHDSRWLNDPKFISAHLISESDNPEDDKVYFFFRENAIDGEHSGKATHARIGQICKNDFGGHRSLVNKWTTFLKARLICSVPGPNGIDTHFDELQDVFLMNFKDPKNPVVYGVFTTSSNIFKGSAVCMYSMSDVRRVFLGPYAHRDGPNYQWVPYQGRVPYPRPGTCPSKTFGGFDSTKDLPDDVITFARSHPAMYNPVFPMNNRPIVIKTDVNYQFTQIVVDRVDAEDGQYDVMFIGTDVGTVLKVVSIPKETWYDLEEVLLEEMTVFREPTAISAMELSTKQQQLYIGSTAGVAQLPLHRCDIYGKACAECCLARDPYCAWDGSACSRYFPTAKRRTRRQDIRNGDPLTHCSDLHHDNHHGHSPEERIIYGVENSSTFLECSPKSQRALVYWQFQRRNEERKEEIRVDDHIIRTDQGLLLRSLQQKDSGNYLCHAVEHGFIQTLLKVTLEVIDTEHLEELLHKDDDGDGSKTKEMSNSMTPSQKVWYRDFMQLINHPNLNTMDEFCEQVWKRDRKQRRQRPGHTPGNSNKWKHLQENKKGRNRRTHEFERAPRSV
notes: Semaphorin 3a (Sema3a), human; Commercial Fc fusion; no catalogue number; also called Sema3a-Ig; Semaphorin3a-hIgG1; source: bought: R&D systems

Experiments:
[1] = molecular target: PD-1 on labeled cells (intercellular conjugate assay) (UniProt Q15116); assay: intercellular conjugate assay; two cell populations labeled with CFSE or Violet Cell Trace, 2 x 10^5 of each mixed in FACS buffer, 45 minutes at 37 degrees Celsius; co-localization read by FACS
Chain of PD-1 on labeled cells (intercellular conjugate assay) (Q15116 25-288): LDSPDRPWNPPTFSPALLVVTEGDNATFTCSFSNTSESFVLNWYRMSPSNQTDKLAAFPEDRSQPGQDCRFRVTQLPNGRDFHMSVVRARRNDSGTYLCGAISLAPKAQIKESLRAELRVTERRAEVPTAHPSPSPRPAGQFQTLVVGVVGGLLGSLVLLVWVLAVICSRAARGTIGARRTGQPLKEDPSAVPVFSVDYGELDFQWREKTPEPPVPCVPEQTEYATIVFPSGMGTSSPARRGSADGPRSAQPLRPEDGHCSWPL

[2] = molecular target: T1, Recombinant human NRP1 (R&D); assay: BLI; BLItz system (ForteBio); human IgG fusion protein (25 ug/mL, 2 min) captured on anti-human IgG Fc capture sensors; protein analytes in 1x Kinetic Buffer (ForteBio); conditions: both partners purified

Molecule | percent co-localization [1] [%] | binding result [2]
PD-L2 on labeled cells (intercellular conjugate assay) (from UniProt Q9BQ51 20-273) (ligand) | 24 | –
PD-L1 on labeled cells (intercellular conjugate assay) (from UniProt Q9NZQ7 19-290) (ligand) | 18 | –
B1 | – | binds
